Laboratory results taken from patent US6627193.

B1: TLCK-inactivated RgpB (protein)
chain: YTPVEEKENGRMIVIVAKKYEGDIKDFVDWKNQRGLRTEVKVAEDIASPVTANAIQQFVKQEYEKEGNDLTYVLLVGDHKDIPAKITPGIKSDQVYGQIVGNDHYNEVFIGRFSCESKEDLKTQIDRTIHYERNITTEDKWLGQALCIASAEGGPSADNGESDIQHENVIANLLTQYGYTKIIKCYDPGVTPKNIIDAFNGGISLVNYTGHGSETAWGTSHFGTTHVKQLTNSNQLPFIFDVACVNGDFLFSMPCFAEALMRAQKDGKPTGTVAIIASTIDQYWAPPMRGQDEMNEILCEKHPNNIKRTFGGVTMNGMFAMVEKYKKDGENMLDTWTVFGDPSLLVRTLVPTEMQVTAPANISASAQTFEVACDYNGAIATLSDDGDMVGTAIVKDGKAIIKLNESIADETNLTLTVVGYNKVTVIKDVKVEGTSIADVANDKPYTVAVSGKTITVESPAAGLTIFDMNGRRVATAKNRMVFEAQNGVYAVRIATEGKTYTEKVIVK
B2: RgpB (50 kDa gingipain R, RGP-2) from Porphyromonas gingivalis HG66 (protein)
chain: B1 chain

Target: purified human protein C (PC), P04070
Sequence (P04070 whole entry, looked up): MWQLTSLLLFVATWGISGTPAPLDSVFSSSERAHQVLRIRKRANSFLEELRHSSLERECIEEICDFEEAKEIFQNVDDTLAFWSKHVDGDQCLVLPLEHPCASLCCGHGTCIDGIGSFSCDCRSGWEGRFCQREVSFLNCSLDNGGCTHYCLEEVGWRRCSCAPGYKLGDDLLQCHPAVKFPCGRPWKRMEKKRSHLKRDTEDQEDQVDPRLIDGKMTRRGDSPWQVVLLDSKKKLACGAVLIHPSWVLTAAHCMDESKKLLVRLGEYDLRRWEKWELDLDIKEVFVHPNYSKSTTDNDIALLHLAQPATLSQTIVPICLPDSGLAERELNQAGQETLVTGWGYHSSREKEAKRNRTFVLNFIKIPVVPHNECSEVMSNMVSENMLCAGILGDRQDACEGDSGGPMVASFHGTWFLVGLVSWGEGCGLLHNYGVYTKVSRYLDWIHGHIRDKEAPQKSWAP

| Protein | APC activity generated from purified PC | APC activity generated from purified PC (amidolytic assay with Boc-Leu-Ser-Thr-Arg-MCA) | APC activity generated in human plasma | Km (activation of human protein C) | kcat (activation of human protein C) | kcat/Km (activation of human protein C) |
| --- | --- | --- | --- | --- | --- | --- |
| B1 | TLCK-treated enzymes did not induce PC activation |  |  |  |  |  |
| B2 |  | Both proteinases generated APC linearly in a dose- and incubation time-dependent manner | with RgpB negligible APC was detected | 3.8 µM | 0.015 s⁻¹ | 3900 M⁻¹ s⁻¹ |
